Test results as given in patent US20060088531A1 (CAMBRIDGE ENTERPRISE, published 2006).

Assays:
hD1D2-CaM [1] = biological target: T1, hD1D2-CaM (human, UniProt Q9HCN6 21-205; P0DP23 2-149, limits assumed); test: resonant mirror biosensor, from response ratio against ratio of molecular masses
T1 construct: Residues are counted on mature GPVI, not on the precursor; also called rGPVI; recombinant GPVI
Protocol: Binding studies and affinity measurements were conducted using a resonant mirror biosensor (Iasys, Thermolabsystems, Cambridge, UK). Using this system, one protein (the ligand) was immobilised to the mirrored surface of the cell of a cuvette. The cell contains a stirred volume of buffer to which aliquots of a second protein (the ligate) are then added. If the ligate binds or dissociates from the immobilised ligand, these changes are detected optically and give a reading in arc.sec−1 in real time. […] Here, BSA-N9A was covalently immobilised to a carboxymethyldextran surface using the manufacturer's instructions. The machine was then primed with TBS-TCa. A stirring speed of 100, cuvette temperature of 25° C. and reaction volume per cell of 50 μl were used in all experiments unless otherwise indicated. […] Several washes with TBS-TCa were made to remove unbound material from the cell. Then typically the wells were filled with 45 μl buffer to which was added further volumes of purified scFv (e.g. 5 μl) in HBS. The binding of scFv was measured in arc.sec⁻¹. The binding curves were analysed either by recording response at equilibrium versus time (for epitope mapping studies) or by calculating the initial rates of binding at different scFv concentrations using FastFit software (for affinity measurements).
ScFvs were added sequentially to saturation, without washing. […]

hD1-CaM = biological target: T2, hD1-CaM (human, UniProt Q9HCN6 21-109; P0DP23 2-149, limits assumed); test: screening ELISA
T2 construct: Residues counted on mature GPVI; also called isolated hD1

hD1D2-CaM [2] = biological target: T1, hD1D2-CaM; test: resonant mirror biosensor, Cell 1
Protocol: Here, BSA-N9A was covalently immobilised to a carboxymethyldextran surface using the manufacturer's instructions. The machine was then primed with TBS-TCa. A stirring speed of 100, cuvette temperature of 25° C. and reaction volume per cell of 50 μl were used in all experiments unless otherwise indicated. […] Several washes with TBS-TCa were made to remove unbound material from the cell. Then typically the wells were filled with 45 μl buffer to which was added further volumes of purified scFv (e.g. 5 μl) in HBS. The binding of scFv was measured in arc.sec⁻¹. The binding curves were analysed either by recording response at equilibrium versus time (for epitope mapping studies) or by calculating the initial rates of binding at different scFv concentrations using FastFit software (for affinity measurements).
Each scFv was then allowed to bind to saturation.

mD1D2-CaM = biological target: T3, mD1D2-CaM (murine, UniProt P0C191 22-206; P0DP23 2-149, limits assumed); test: capture ELISA, purified scFv
T3 construct: Residues counted from Q1 (mature protein); also called murine D1D2; mouse D1D2-CaM

B1: scFv 1C3 (scFv, V domains shown)
VH: QVQLQQSGAEVKKPGESLKISCQASGYSFSSYWIAWVRQMPGKGLELMGIIYPGDSDARYSPSFQGQVTFSADKSINTAYLQWSSLKASDTAMYYCARQGKTGSYYFGAFDVWGQGTMVTVSS
VL: QSVLTQPPSMSAAPGQKVTISCTGTSSDVGGYNYVSWYQQHPGKAPKLMLFEVSHRPSGVSNRFSGSKSDNTASLTISGLQAEDEADYYCSSYTGSSTWVFGGGTKVTVL
notes: Human scFv from the Marks library; also called 1C3 scFv
- binding ratio (scFv to hD1D2) (hD1D2-CaM [1]): 1
- binding result (hD1-CaM): no binding
- ratio of responses 1C3: D1D2-CaM (hD1D2-CaM [2]): 0.63

B2: scFv 10B12 (scFv, V domains shown)
VH: EVQLVQSGGGVVQPGGSLRLSCAASGFTFSSYGMHWVRQAPGKGLEWVAFIRYDGSNKYYADSVKGRFTISRDNSKNTLYLQMNSLRAEDTAVYYCTDGWAEMATTDDAFDIWGRGTMVTV
VL: DIQMTQSPSTLSASIGDRVTITCRASEGIYHWLAWYQQKPGKAPKLLIYKASSLASGAPSRFSGSGSGTDFTLTISSLQPDDFATYYCQQYSNYPLTFGGGTKLEIK
notes: Human scFv from the CaT (Vaughan) library; also called 10B12 scFv
- binding ratio (scFv to hD1D2) (hD1D2-CaM [1]): 1
- binding result (mD1D2-CaM): no binding (tested: 10 µg/ml)
- ratio of responses 10B12: D1D2-CaM (hD1D2-CaM [2]): 0.61
